The values below are quoted from earlier work in patent publication US20260070964A1, “IL-12 GENE THERAPY AND ANTI-VEGF COMBINATION FOR TREATING CANCER” (IMUNON, INC., priority 2022, published 2026).

For data set [1] the following is noted: several experimental trials and an initial human trial.
The next data set has as its system established tumors. The following applies: animal models.
For data set [2] the following is noted: human clinical trial.

Regarding “recombinant IL-12: recombinant interleukin-12 protein”, in data set [1], the “toxicity on systemic administration” value was “dose limiting toxicity”. Further, in the data set with established tumors, the antitumor effects result is recorded as “profound T-cell mediated antitumor effects causing regression of established tumors”. The “toxicity on intraperitoneal administration” value in data set [2] is reported as “Dose limiting toxicity was also observed”.
